Measured values reported in patent US20250243243A1, “DISRUPTION OF SONIC HEDGEHOG-SURF4 INTERACTION FOR CANCER TREATMENT” (The Hong Kong University of Science and Technology, priority 2022, published 2025).

Biological target: ShhN^1-198-HA (mouse) (UniProt Q62226)
Assay: anti-HA immunoprecipitation from HEK293T lysate, label-free quantitative mass spectrometry; 1 unique peptide; Control Group, IGF2 Group and Abundance Ratio not given

ShhN^1-198-HA (mouse), sequence (Q62226 25-198): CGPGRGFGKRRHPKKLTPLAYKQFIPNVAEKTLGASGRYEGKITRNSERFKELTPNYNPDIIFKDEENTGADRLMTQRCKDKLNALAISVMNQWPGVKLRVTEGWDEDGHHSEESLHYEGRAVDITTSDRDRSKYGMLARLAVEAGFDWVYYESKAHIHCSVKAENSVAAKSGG

| Substance | abundance in The ShhN Group |
| --- | --- |
| BHMT (from UniProt Q93088) (enzyme) | 2060 |
| GRIA1 (from UniProt P42261) (receptor) | 19800 |
| PPIB (from UniProt P23284) (enzyme) | 8940 |
| VPS51 (from UniProt Q9UID3) | 45400 |
